From US20090298167A1 (Pfizer, published 2009)

What was measured:
[1] = biological target: murine IL-21R expressed on cells (murine, UniProt Q9JHX3 20-529); experiment: cell-based or functional assay
[2] = biological target: T1, human IL-21R expressed on cells (human, UniProt Q9HBE5 20-538); experiment: cell-based or functional assay
[3] = biological target: T2, rat IL-21R expressed on cells (rat); experiment: cell ELISA: CHO cells transiently expressing the receptor, antibody in conditioned medium, HRP anti-human IgG, A450
T2 construct: whole, on cells; Transiently transfected CHO-PA-Dukx cells
Experimental: A subset of binding proteins was tested for binding to rat, cynomolgus monkey, human IL-21R, or human IL-2R-γ common subunit expressed transiently on the surfaces of CHO-PA-Dukx cells. Cells were transfected 48 hr prior to the assay. On the day of the assay, cells were washed gently 5× in PBS containing 0.9 mM CaCl₂ and 0.45 mM MgCl₂ (PBS/CaMg) on an automated plate washer (Titertek, Huntsville, Ala.), and blocked for 1 hr at RT in PBS/CaMg/5% nonfat dry milk. Conditioned media from transiently expressed anti-IL-21R IgGs were serially diluted in blocking buffer and added to the cells in the blocked plates for 1 hr at RT. Cells were washed 5× with PBS/CaMg and then incubated with horseradish peroxidase-conjugated anti-human IgG for 1 hr at RT. Cells were then washed 10× in PBS/CaMg and all of the wash buffer was removed. Cells were incubated with 100 μl TMB until the color reaction reached saturation, stopped with 100 μl of 0.18 M H₂SO₄, and read at A450 on a Perkin Elmer ENVISION™ plate reader.

[4] = biological target: T3, human gamma common chain expressed on CHO cells (human, UniProt P31785 23-369); experiment: cell ELISA on transfected CHO cells, 13 nM IgG
T3 construct: whole, on cells; Control protein; also called human IL-2R-γ common subunit; human gamma (γ) common chain
T3 sequence (looked up): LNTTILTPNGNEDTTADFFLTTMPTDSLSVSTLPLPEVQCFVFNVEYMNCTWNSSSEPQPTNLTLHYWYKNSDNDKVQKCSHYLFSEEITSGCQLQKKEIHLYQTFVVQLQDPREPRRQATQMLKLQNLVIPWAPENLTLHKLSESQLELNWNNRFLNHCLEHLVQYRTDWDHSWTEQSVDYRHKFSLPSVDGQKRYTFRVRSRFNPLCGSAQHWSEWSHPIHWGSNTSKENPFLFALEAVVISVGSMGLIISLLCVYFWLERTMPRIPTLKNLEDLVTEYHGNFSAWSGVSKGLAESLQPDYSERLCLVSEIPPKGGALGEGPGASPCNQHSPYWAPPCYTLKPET

[5] = biological target: T4, cynomolgus monkey IL-21R expressed on CHO cells (cynomolgus monkey); experiment: cell ELISA on transfected CHO cells, 13 nM IgG
T4 construct: whole, on cells

[6] = biological target: T1, human IL-21R expressed on cells; experiment: cell ELISA on transfected CHO cells, 13 nM IgG
[7] = biological target: T2, rat IL-21R expressed on cells; experiment: cell ELISA on transfected CHO cells, 13 nM IgG

T1 sequence (Q9HBE5 20-538 limits assumed): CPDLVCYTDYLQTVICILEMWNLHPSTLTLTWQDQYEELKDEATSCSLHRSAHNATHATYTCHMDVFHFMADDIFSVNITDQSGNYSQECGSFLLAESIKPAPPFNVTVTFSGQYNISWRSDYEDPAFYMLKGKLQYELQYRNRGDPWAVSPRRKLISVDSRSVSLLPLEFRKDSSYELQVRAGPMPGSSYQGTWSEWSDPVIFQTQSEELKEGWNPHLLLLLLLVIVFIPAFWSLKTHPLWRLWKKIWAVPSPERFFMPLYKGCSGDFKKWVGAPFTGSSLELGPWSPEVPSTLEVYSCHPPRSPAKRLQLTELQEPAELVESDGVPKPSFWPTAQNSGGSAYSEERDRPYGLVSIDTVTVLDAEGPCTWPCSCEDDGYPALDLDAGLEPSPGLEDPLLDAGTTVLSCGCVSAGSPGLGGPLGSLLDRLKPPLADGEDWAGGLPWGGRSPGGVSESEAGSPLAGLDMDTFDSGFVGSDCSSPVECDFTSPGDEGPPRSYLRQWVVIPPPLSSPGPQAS
murine IL-21R expressed on cells, sequence (Q9JHX3 20-529 limits assumed): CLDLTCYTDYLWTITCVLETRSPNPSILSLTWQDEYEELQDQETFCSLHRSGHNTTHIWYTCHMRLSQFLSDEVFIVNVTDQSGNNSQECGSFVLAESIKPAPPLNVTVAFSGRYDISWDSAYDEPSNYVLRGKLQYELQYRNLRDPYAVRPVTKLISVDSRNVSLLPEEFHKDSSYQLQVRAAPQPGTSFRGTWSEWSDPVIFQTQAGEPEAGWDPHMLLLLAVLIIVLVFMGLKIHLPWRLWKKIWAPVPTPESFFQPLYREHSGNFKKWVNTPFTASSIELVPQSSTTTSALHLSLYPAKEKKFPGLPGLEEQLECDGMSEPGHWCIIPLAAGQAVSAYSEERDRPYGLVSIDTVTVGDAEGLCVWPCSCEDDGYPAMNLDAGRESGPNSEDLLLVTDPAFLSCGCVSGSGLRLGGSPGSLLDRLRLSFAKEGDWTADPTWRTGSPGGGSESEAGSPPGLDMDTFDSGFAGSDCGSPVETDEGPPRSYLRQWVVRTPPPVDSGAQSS

B1: AbG (antibody, human IgG1, V domains shown)
VH: QVQLQESGPGLVKPSETLSLTCAVSGYSISSGYYWGWIRQPPGKGLEWIGSISHTGNTYYNPPLKSRVTISVDTSKNQFSLKLSSVTAADTAVYYCARGGGISRPEYWGQGTLVTVSS
VL: SSELTQDPAVSVALGQTVRITCQGDSLRTYYASWYQQKPGQAPVLVIYGKHKRPSGIPDRFSGSSSGNTASLTITGAQAEDEADYYCVTRSVKGNPHVLFGGGTQLTVL
notes: Full-length human IgG1 / human lambda, transient, conditioned medium; Framework limits derived; also called VHP/VL18
Murine IL-21R-BaF3 Proliferation IC50 [1]: 0.07 nM
Human IL-21R-BaF3 Proliferation IC50 [2]: 0.77 nM
Human IL-21R-TF1 Proliferation IC50 [2]: 3.84 nM
EC50 (read off the curve) [3]: ~0.8 nM
A450 at 13 nM Ab in cell ELISA [4]: 0.108 A450
A450 at 13 nM Ab in cell ELISA [5]: 1.3 A450
A450 at 13 nM Ab in cell ELISA [6]: 1.35 A450
A450 at 13 nM Ab in cell ELISA [7]: 1.11 A450
